Measurements as given in paper PMC11406491, “A Plasmonic Nanoledge Array Sensor for Selective Detection of Cardiovascular Disease Biomarkers in Human Whole Blood”.

How the values were obtained:
[1] = target: cardiac troponin I (cTnI) (human, UniProt P19429 2-210); assay: SPR (transmitted, EOT peak shift); PBS; LOD 0.079 ng/mL; Aptamer immobilized on gold nanoledge chip (cystamine/glutaraldehyde, PEG and glycine blocked); PBS, human serum or whole blood; 20 min incubation; room temperature (stated for stability test); pH and salt not given; conditions: protein: commercial
[2] = target: T1, myoglobin (UniProt P02144 2-154); assay: SPR (transmitted, EOT peak shift); up to 125 ng/mL; minimal shift, described as poor binding; human serum (Methods) or PBS (Fig S8); Aptamer immobilized on gold nanoledge chip (cystamine/glutaraldehyde, PEG and glycine blocked); PBS, human serum or whole blood; 20 min incubation; room temperature (stated for stability test); pH and salt not given; conditions: protein: commercial
T1 sequence: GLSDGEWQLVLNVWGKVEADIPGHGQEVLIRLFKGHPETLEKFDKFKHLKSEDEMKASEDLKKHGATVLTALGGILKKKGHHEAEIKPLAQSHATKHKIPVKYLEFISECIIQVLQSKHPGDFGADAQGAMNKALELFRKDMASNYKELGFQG

Sequence of cardiac troponin I (cTnI) (P19429 2-210): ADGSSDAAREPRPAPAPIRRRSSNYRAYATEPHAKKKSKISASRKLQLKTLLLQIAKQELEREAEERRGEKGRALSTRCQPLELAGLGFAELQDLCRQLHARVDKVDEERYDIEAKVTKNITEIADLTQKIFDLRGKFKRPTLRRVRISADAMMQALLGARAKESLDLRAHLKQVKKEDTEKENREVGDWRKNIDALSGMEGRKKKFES

B1: cTnI-specific aptamer (ssDNA)
DNA: CGTGCAGTACGCCAACCTTTCTCATGCGCTGCCCCTCTTA
modifications: 5' amino modifier C6 (5AmMC6)
[1]
  binding result: binds
[2]
  binding result: no binding
